Data as given in US20200024322A1 (Eli Lilly, published 2020).
Numbered stars: 1 amine (or outer) side, 2 acyl side, 3 side chain; on linkers, the order of the positions; unused ones are H or OH. Square brackets hold non-standard residues; d marks the D form. Side chains are listed from the residue outwards. Ends that are not written are not given here. * marks the point of attachment. C20 diacid = O=C(O)CCCCCCCCCCCCCCCCCCC(=O)*; αMePhe(2-F) = C[C@](N)(Cc1ccccc1F)C(=O)O; γGlu = O=C(O)[C@H](CCC(=O)[*:2])N[*:1]; Desaminohistidyl = O=C(CCc1c[nH]cn1)*; αMeF = C[C@](N)(Cc1ccccc1)C(=O)O; αMeL = CC(C)C[C@](C)(N)C(=O)O; cTA = not defined here; AEEA = NCCOCCOCC(=O)O; Aib = CC(C)(N)C(=O)O

T1: human GIP receptor (human, UniProt P48546 22-466)
T1 construct: whole, on cells; Used as crude membranes of stably transfected CHO cells; also called hGIPR
T1 sequence (looked up): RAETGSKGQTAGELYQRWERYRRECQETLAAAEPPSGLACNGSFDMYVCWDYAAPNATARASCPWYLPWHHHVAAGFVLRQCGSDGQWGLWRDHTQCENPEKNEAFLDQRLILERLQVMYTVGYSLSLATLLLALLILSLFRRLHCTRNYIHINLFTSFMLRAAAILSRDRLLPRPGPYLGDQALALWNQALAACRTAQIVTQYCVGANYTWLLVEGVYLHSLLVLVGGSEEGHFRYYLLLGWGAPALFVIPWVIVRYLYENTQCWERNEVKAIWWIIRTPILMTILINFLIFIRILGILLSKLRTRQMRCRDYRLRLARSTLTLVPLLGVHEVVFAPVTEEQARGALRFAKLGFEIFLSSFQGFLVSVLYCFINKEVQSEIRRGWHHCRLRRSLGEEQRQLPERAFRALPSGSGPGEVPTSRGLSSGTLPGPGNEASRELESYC


Tests used:
human GIP receptor = biological target: T1, human GIP receptor; assay: SPA, [125I]-GIP displacement, hGIPR membranes
human GLP-1 receptor = biological target: T2, human GLP-1 receptor (human, UniProt P43220 24-463); assay: SPA, [125I]-GLP-1 displacement, hGLP-1R membranes
T2 construct: whole, on cells; Used as crude membranes of stably transfected HEK293 cells; also called hGLP1R; hGLP-1R

human glucagon receptor = biological target: T3, human glucagon receptor (human, UniProt P47871 26-477); assay: SPA, [125I]-Gcg displacement, hGcgR membranes
T3 construct: whole, on cells; Used as crude membranes of stably transfected HEK293 cells; also called hGcgR; hGLcgR
T3 sequence (P47871 26-477): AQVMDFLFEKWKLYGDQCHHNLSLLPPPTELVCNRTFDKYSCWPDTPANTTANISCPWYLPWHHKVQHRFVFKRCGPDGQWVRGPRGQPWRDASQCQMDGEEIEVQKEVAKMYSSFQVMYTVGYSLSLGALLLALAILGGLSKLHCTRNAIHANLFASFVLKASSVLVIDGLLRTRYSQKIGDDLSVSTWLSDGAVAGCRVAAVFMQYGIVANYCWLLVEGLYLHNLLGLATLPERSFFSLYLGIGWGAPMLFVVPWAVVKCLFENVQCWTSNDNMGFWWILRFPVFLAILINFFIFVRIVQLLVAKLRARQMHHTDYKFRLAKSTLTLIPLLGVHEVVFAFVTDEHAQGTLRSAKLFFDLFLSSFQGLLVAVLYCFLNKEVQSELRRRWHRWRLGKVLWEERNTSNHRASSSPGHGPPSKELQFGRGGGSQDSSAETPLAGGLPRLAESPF

Binder | Ki (human GIP receptor) [nM] | Ki (human GLP-1 receptor) [nM] | Ki (human glucagon receptor) [nM]
Y[Aib]EGT[αMeF]TSDYSILK([AEEA-AEEA-γGlu-C20 diacid])DKIAQ[Aib]AFIEYLIEGG-NH2 (N-terminus assumed; SMILES CC[C@H](C)[C@H](NC(=O)[C@H](CCCCN)NC(=O)[C@H](CC(=O)O)NC(=O)[C@H](CCCCNC(=O)COCCOCCNC(=O)COCCOCCNC(=O)CC[C@H](NC(=O)CCCCCCCCCCCCCCCCCCC(=O)O)C(=O)O)NC(=O)[C@H](CC(C)C)NC(=O)[C@@H](NC(=O)[C@H](CO)NC(=O)[C@H](Cc1ccc(O)cc1)NC(=O)[C@H](CC(=O)O)NC(=O)[C@H](CO)NC(=O)[C@@H](NC(=O)[C@](C)(Cc1ccccc1)NC(=O)[C@@H](NC(=O)CNC(=O)[C@H](CCC(=O)O)NC(=O)C(C)(C)NC(=O)[C@@H](N)Cc1ccc(O)cc1)[C@@H](C)O)[C@@H](C)O)[C@@H](C)CC)C(=O)N[C@@H](C)C(=O)N[C@@H](CCC(N)=O)C(=O)NC(C)(C)C(=O)N[C@@H](C)C(=O)N[C@@H](Cc1ccccc1)C(=O)N[C@H](C(=O)N[C@@H](CCC(=O)O)C(=O)N[C@@H](Cc1ccc(O)cc1)C(=O)N[C@@H](CC(C)C)C(=O)N[C@H](C(=O)N[C@@H](CCC(=O)O)C(=O)NCC(=O)NCC(N)=O)[C@@H](C)CC)[C@@H](C)CC) [Example 93] | 0.0859 | 1.89 | 15.7
YXEGTXTSDYSIXLDEKAQXAFIEYLIEGG (Aib2; αMeF6; αMeL13; K17((2-[2-(2-Amino-ethoxy)-ethoxy]-acetyl)2-(γ-Glu)-CO-(CH2)18-CO2H); Aib20; C-terminal NH2) [Example 100] | 0.115 | 4.13 | 44
YXEGTXTSDYSIXLDKKAQXAFIEYLIEGG (Aib2; αMeF6; αMeL13; K17((2-[2-(2-Amino-ethoxy)-ethoxy]-acetyl)2-(γ-Glu)-CO-(CH2)18-CO2H); Aib20; C-terminal NH2) [Example 99] | 0.027 | 1.15 | 23.6
YXEGTXTSDYSIXLDEKAQXEFIEYLIEGG (Aib2; αMeF(2F)6; αMeL13; K17((2-[2-(2-Amino-ethoxy)-ethoxy]-acetyl)2-(γ-Glu)-CO-(CH2)18-CO2H); Aib20; C-terminal NH2) [Example 103] | 0.0645 | 6.68 | 40.3
YXEGTXTSDYSIXLDEKAQXEFIEYLIEGG (Aib2; αMeF(2F)6; αMeL13; K17((2-[2-(2-Amino-ethoxy)-ethoxy]-acetyl)2-(γ-Glu)-CO-(CH2)16-CO2H); Aib20; C-terminal NH2) [Example 104] | 0.0565 | 3.91 | 123
Y[Aib]EGT[αMePhe(2-F)]TSDYSI[Aib]LDEK([AEEA-AEEA-γGlu-C20 diacid])AQ[Aib]AFIEYLIEGG-NH2 (N-terminus assumed; SMILES CC[C@H](C)[C@H](NC(=O)[C@H](CC(C)C)NC(=O)[C@H](Cc1ccc(O)cc1)NC(=O)[C@H](CCC(=O)O)NC(=O)[C@@H](NC(=O)[C@H](Cc1ccccc1)NC(=O)[C@H](C)NC(=O)C(C)(C)NC(=O)[C@H](CCC(N)=O)NC(=O)[C@H](C)NC(=O)[C@H](CCCCNC(=O)COCCOCCNC(=O)COCCOCCNC(=O)CC[C@H](NC(=O)CCCCCCCCCCCCCCCCCCC(=O)O)C(=O)O)NC(=O)[C@H](CCC(=O)O)NC(=O)[C@H](CC(=O)O)NC(=O)[C@H](CC(C)C)NC(=O)C(C)(C)NC(=O)[C@@H](NC(=O)[C@H](CO)NC(=O)[C@H](Cc1ccc(O)cc1)NC(=O)[C@H](CC(=O)O)NC(=O)[C@H](CO)NC(=O)[C@@H](NC(=O)[C@](C)(Cc1ccccc1F)NC(=O)[C@@H](NC(=O)CNC(=O)[C@H](CCC(=O)O)NC(=O)C(C)(C)NC(=O)[C@@H](N)Cc1ccc(O)cc1)[C@@H](C)O)[C@@H](C)O)[C@@H](C)CC)[C@@H](C)CC)C(=O)N[C@@H](CCC(=O)O)C(=O)NCC(=O)NCC(N)=O) [Example 101] | 0.0953 | 8.1 | 117
[Desaminohistidyl][Aib]EGTFTSDYSILLDKK([AEEA-AEEA-γGlu-C20 diacid])AQ[Aib]AFIEYLIEGGPSSGAPPPS-NH2 (also: reversed amide ψ[NHCO] between residues 1 and 2) [Example 105] | 0.119 | 0.871 | 20.4
[Desaminohistidyl][Aib]EGTFTSDYSILLDKK([AEEA-AEEA-γGlu-C20 diacid])AQ[Aib]AFIEYLIEGGPSSGAPPPS-NH2 (SMILES CC[C@H](C)[C@H](NC(=O)[C@H](CC(C)C)NC(=O)[C@H](Cc1ccc(O)cc1)NC(=O)[C@H](CCC(=O)O)NC(=O)[C@@H](NC(=O)[C@H](Cc1ccccc1)NC(=O)[C@H](C)NC(=O)C(C)(C)NC(=O)[C@H](CCC(N)=O)NC(=O)[C@H](C)NC(=O)[C@H](CCCCNC(=O)COCCOCCNC(=O)COCCOCCNC(=O)CC[C@H](NC(=O)CCCCCCCCCCCCCCCCCCC(=O)O)C(=O)O)NC(=O)[C@H](CCCCN)NC(=O)[C@H](CC(=O)O)NC(=O)[C@H](CC(C)C)NC(=O)[C@H](CC(C)C)NC(=O)[C@@H](NC(=O)[C@H](CO)NC(=O)[C@H](Cc1ccc(O)cc1)NC(=O)[C@H](CC(=O)O)NC(=O)[C@H](CO)NC(=O)[C@@H](NC(=O)[C@H](Cc1ccccc1)NC(=O)[C@@H](NC(=O)CNC(=O)[C@H](CCC(=O)O)NC(=O)C(C)(C)NC(=O)CCc1c[nH]cn1)[C@@H](C)O)[C@@H](C)O)[C@@H](C)CC)[C@@H](C)CC)C(=O)N[C@@H](CCC(=O)O)C(=O)NCC(=O)NCC(=O)N1CCC[C@H]1C(=O)N[C@@H](CO)C(=O)N[C@@H](CO)C(=O)NCC(=O)N[C@@H](C)C(=O)N1CCC[C@H]1C(=O)N1CCC[C@H]1C(=O)N1CCC[C@H]1C(=O)N[C@@H](CO)C(N)=O) [Example 106] | 0.179 | 1.2 | 515
XXEGTFTSDYSILLDKKAQXAFIEYLIEGGPSSGAPPPS (DesTyr1; Aib2; K17((2-[2-(2-Amino-ethoxy)-ethoxy]-acetyl)2-(γ-Glu)-CO-(CH2)18-CO2H); Aib20; C-terminal NH2) [Example 107] | 0.0425 | 0.867 | 303
Y[Aib]EGT[αMeF]TSDYSI[Aib]LDEK([AEEA-AEEA-γGlu-C20 diacid])AQ[Aib]AFIEYLIEGGPSSGAPPPS-NH2 (N-terminus assumed; SMILES CC[C@H](C)[C@H](NC(=O)[C@H](CC(C)C)NC(=O)[C@H](Cc1ccc(O)cc1)NC(=O)[C@H](CCC(=O)O)NC(=O)[C@@H](NC(=O)[C@H](Cc1ccccc1)NC(=O)[C@H](C)NC(=O)C(C)(C)NC(=O)[C@H](CCC(N)=O)NC(=O)[C@H](C)NC(=O)[C@H](CCCCNC(=O)COCCOCCNC(=O)COCCOCCNC(=O)CC[C@H](NC(=O)CCCCCCCCCCCCCCCCCCC(=O)O)C(=O)O)NC(=O)[C@H](CCC(=O)O)NC(=O)[C@H](CC(=O)O)NC(=O)[C@H](CC(C)C)NC(=O)C(C)(C)NC(=O)[C@@H](NC(=O)[C@H](CO)NC(=O)[C@H](Cc1ccc(O)cc1)NC(=O)[C@H](CC(=O)O)NC(=O)[C@H](CO)NC(=O)[C@@H](NC(=O)[C@](C)(Cc1ccccc1)NC(=O)[C@@H](NC(=O)CNC(=O)[C@H](CCC(=O)O)NC(=O)C(C)(C)NC(=O)[C@@H](N)Cc1ccc(O)cc1)[C@@H](C)O)[C@@H](C)O)[C@@H](C)CC)[C@@H](C)CC)C(=O)N[C@@H](CCC(=O)O)C(=O)NCC(=O)NCC(=O)N1CCC[C@H]1C(=O)N[C@@H](CO)C(=O)N[C@@H](CO)C(=O)NCC(=O)N[C@@H](C)C(=O)N1CCC[C@H]1C(=O)N1CCC[C@H]1C(=O)N1CCC[C@H]1C(=O)N[C@@H](CO)C(N)=O) [Example 117] | 0.0497 | 6.96 | 192
Y[Aib][cTA]GT[αMeF]TSDYSI[αMeL]LDEK([AEEA-AEEA-γGlu-C20 diacid])AQ[Aib]AFIEYLIEGGPSSGAPPPS-NH2 (reading uncertain) [Example 120] | 0.11 | 11.7 | 93.6
Y[Aib]EGT[αMeF]TSDYSI[αMeL]LDEK([AEEA-AEEA-γGlu-C20 diacid])AQQAFIEYLIEGGPSSGAPPPS-NH2 (N-terminus assumed; SMILES CC[C@H](C)[C@H](NC(=O)[C@H](CC(C)C)NC(=O)[C@H](Cc1ccc(O)cc1)NC(=O)[C@H](CCC(=O)O)NC(=O)[C@@H](NC(=O)[C@H](Cc1ccccc1)NC(=O)[C@H](C)NC(=O)[C@H](CCC(N)=O)NC(=O)[C@H](CCC(N)=O)NC(=O)[C@H](C)NC(=O)[C@H](CCCCNC(=O)COCCOCCNC(=O)COCCOCCNC(=O)CC[C@H](NC(=O)CCCCCCCCCCCCCCCCCCC(=O)O)C(=O)O)NC(=O)[C@H](CCC(=O)O)NC(=O)[C@H](CC(=O)O)NC(=O)[C@H](CC(C)C)NC(=O)[C@](C)(CC(C)C)NC(=O)[C@@H](NC(=O)[C@H](CO)NC(=O)[C@H](Cc1ccc(O)cc1)NC(=O)[C@H](CC(=O)O)NC(=O)[C@H](CO)NC(=O)[C@@H](NC(=O)[C@](C)(Cc1ccccc1)NC(=O)[C@@H](NC(=O)CNC(=O)[C@H](CCC(=O)O)NC(=O)C(C)(C)NC(=O)[C@@H](N)Cc1ccc(O)cc1)[C@@H](C)O)[C@@H](C)O)[C@@H](C)CC)[C@@H](C)CC)C(=O)N[C@@H](CCC(=O)O)C(=O)NCC(=O)NCC(=O)N1CCC[C@H]1C(=O)N[C@@H](CO)C(=O)N[C@@H](CO)C(=O)NCC(=O)N[C@@H](C)C(=O)N1CCC[C@H]1C(=O)N1CCC[C@H]1C(=O)N1CCC[C@H]1C(=O)N[C@@H](CO)C(N)=O) [Example 121] | 0.177 | 3.16 | 51.9
